Assay results taken from patent US20230124669A1 (ADAGENE, published 2023).

T1: mouse CD137 expressed on cells (mouse, UniProt P20334 24-256)
T1 construct: whole, on cells
T1 sequence (looked up): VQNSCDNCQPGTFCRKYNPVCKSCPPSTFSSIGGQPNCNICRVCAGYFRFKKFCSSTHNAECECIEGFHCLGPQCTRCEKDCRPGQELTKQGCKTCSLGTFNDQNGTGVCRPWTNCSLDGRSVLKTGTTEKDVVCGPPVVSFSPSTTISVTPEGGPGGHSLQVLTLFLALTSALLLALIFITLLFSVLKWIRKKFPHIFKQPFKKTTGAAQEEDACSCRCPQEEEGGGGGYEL

B1: TY22362 (bispecific antibody, human IgG4 S228P, kappa)
heavy: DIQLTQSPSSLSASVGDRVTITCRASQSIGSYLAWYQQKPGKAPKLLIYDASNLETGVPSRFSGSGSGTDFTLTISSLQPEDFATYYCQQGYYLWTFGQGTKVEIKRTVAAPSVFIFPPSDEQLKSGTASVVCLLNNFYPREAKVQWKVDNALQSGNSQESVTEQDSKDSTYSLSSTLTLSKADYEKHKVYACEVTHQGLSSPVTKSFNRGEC
light: EVQLVESGGGLVQPGGSLRLSCAASGFSLSTGGVGVGWIRQAPGKGLEWLALIDWADDKYYSPSLKSRLTISRDNSKNTLYLQLNSLRAEDTAVYYCARGGSDTVIGDWFAYWGQGTLVTVSSASTKGPSVFPLAPCSRSTSESTAALGCLVKDYFPEPVTVSWNSGALTSGVHTFPAVLQSSGLYSLSSVVTVPSSSLGTKTYTCNVDHKPSNTKVDKRVESKYGPPCPPCPAPEFLGGPSVFLFPPKPKDTLMISRTPEVTCVVVDVSQEDPEVQFNWYVDGVEVHNAKTKPREEQFNSTYRVVSVLTVLHQDWLNGKEYKCKVSNKGLPSSIEKTISKAKGQPREPQVYTLPPSQEEMTKNQVSLTCLVKGFYPSDIAVEWESNGQPENCYKTTPPVLDCDGSFFLYSRLTVDKSRWQEGNVFSCSVMHEALHNHYTQKSLSLSLGSGGGSGGGGSEVQLVESGGGLVQPGGSLRLSCAASGYSISSGYYWGWIRQAPGKCLEWIGIIYPSGGGTNYAQKFQGRVTISRDNSKNTLYLQLNSLRAEDTAVYYCARGGGLGFDYWGQGTLVTVSSGGGGSGGGGSGGGGSGGGGSDIQLTQSPSSLSASVGDRVTITCRASQSIPSFLNWYQQKPGKAPKLLIYAASSLQSGVPSRFSGSGSGTDFTLTISSLQPEDFATYYCQHYISWPRQFTFGCGTKVEIKR
notes: Morrison format: anti-CD137 Fab, anti-PDL1 scFv; also called CD137 × PDL1 bispecific antibody, format TYF08
B2: TY22359 (bispecific antibody, human IgG1, kappa, N297A)
heavy: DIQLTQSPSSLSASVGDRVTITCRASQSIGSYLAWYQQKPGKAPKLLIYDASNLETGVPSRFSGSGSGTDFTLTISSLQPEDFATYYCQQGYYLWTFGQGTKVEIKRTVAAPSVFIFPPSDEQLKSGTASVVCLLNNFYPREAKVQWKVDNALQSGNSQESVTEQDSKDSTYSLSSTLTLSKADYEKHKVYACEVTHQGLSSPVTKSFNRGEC
light: EVQLVESGGGLVQPGGSLRLSCAASGFSLSTGGVGVGWIRQAPGKGLEWLALIDWADDKYYSPSLKSRLTISRDNSKNTLYLQLNSLRAEDTAVYYCARGGSDTVIGDWFAYWGQGTLVTVSSASTKGPSVFPLAPSSKSTSGGTAALGCLVKDYFPEPVTVSWNSGALTSGVHTFPAVLQSSGLYSLSSVVTVPSSSLGTQTYICNVNHKPSNTKVDKRVEPKSCDKTHTCPPCPAPELLGGPSVFLFPPKPKDTLMISRTPEVTCVVVDVSHEDPEVKFNWYVDGVEVHNAKTKPREEQYASTYRVVSVLTVLHQDWLNGKEYKCKVSNKALPAPIEKTISKAKGQPREPQVYTLPPSREEMTKNQVSLTCLVKGFYPSDIAVEWESNGQPENCYKTTPPVLDCDGSFFLYSKLTVDKSRWQQGNVFSCSVMHEALHNHYTQKSLSLSPGSGGGSGGGGSEVQLVESGGGLVQPGGSLRLSCAASGYSISSGYYWGWIRQAPGKCLEWIGIIYPSGGGTNYAQKFQGRVTISRDNSKNTLYLQLNSLRAEDTAVYYCARGGGLGFDYWGQGTLVTVSSGGGGSGGGGSGGGGSGGGGSDIQLTQSPSSLSASVGDRVTITCRASQSIPSFLNWYQQKPGKAPKLLIYAASSLQSGVPSRFSGSGSGTDFTLTISSLQPEDFATYYCQHYISWPRQFTFGCGTKVEIKR
notes: Morrison format: anti-CD137 Fab, anti-PDL1 scFv; also called CD137 × PDL1 bispecific antibody, format TYF05; Format 5
B3: TY22177 (bispecific antibody, human IgG1, kappa, N297A)
heavy: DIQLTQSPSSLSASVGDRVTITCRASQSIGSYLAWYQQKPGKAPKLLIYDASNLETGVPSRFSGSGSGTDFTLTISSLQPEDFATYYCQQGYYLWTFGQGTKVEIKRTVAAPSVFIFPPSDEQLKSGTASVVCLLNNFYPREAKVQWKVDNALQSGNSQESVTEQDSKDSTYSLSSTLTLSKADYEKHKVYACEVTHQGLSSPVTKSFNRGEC
light: EVQLVESGGGLVQPGGSLRLSCAASGFSLSTGGVGVGWIRQAPGKGLEWLALIDWADDKYYSPSLKSRLTISRDNSKNTLYLQLNSLRAEDTAVYYCARGGSDTVIGDWFAYWGQGTLVTVSSASTKGPSVFPLAPSSKSTSGGTAALGCLVKDYFPEPVTVSWNSGALTSGVHTFPAVLQSSGLYSLSSVVTVPSSSLGTQTYICNVNHKPSNTKVDKRVEPKSCDKTHTCPPCPAPELLGGPSVFLFPPKPKDTLMISRTPEVTCVVVDVSHEDPEVKFNWYVDGVEVHNAKTKPREEQYASTYRVVSVLTVLHQDWLNGKEYKCKVSNKALPAPIEKTISKAKGQPREPQVYTLPPSREEMTKNQVSLTCLVKGFYPSDIAVEWESNGQPENCYKTTPPVLDCDGSFFLYSKLTVDKSRWQQGNVFSCSVMHEALHNHYTQKSLSLSPGSGGGSEVQLVESGGGLVQPGGSLRLSCAASGYSISSGYYWGWIRQAPGKCLEWIGIIYPSGGGTNYAQKFQGRVTISRDNSKNTLYLQLNSLRAEDTAVYYCARGGGLGFDYWGQGTLVTVSSGGGGSGGGGSGGGGSGGGGSDIQLTQSPSSLSASVGDRVTITCRASQSIPSFLNWYQQKPGKAPKLLIYAASSLQSGVPSRFSGSGSGTDFTLTISSLQPEDFATYYCQHYISWPRQFTFGCGTKVEIKR
notes: Morrison format: anti-CD137 Fab, anti-PDL1 scFv; IgG1 with N390C:S400'C and N297A; also called CD137 × PDL1 bispecific antibody, format TYF04
B4: TY22121 (bispecific antibody, human IgG1, kappa)
heavy: DIQLTQSPSSLSASVGDRVTITCRASQSIPSFLNWYQQKPGKAPKLLIYAASSLQSGVPSRFSGSGSGTDFTLTISSLQPEDFATYYCQHYISWPRQFTFGQGTKVEIKRTVAAPSVFIFPPSDEQLKSGTASVVCLLNNFYPREAKVQWKVDNALQSGNSQESVTEQDSKDSTYSLSSTLTLSKADYEKHKVYACEVTHQGLSSPVTKSFNRGEC
light: not shown
notes: Morrison format: anti-PDL1 Fab, anti-CD137 scFv at the C-terminus of the Fc; IgG1; heavy chain = VH-CH1-hinge-CH2-CH3-linker-scFv; also called PDL1 × CD137 bispecific antibody, format TYF01
B5: TY22165 (bispecific antibody, human IgG4 S228P, kappa)
heavy: B4 heavy
light: EVQLVESGGGLVQPGGSLRLSCAASGYSISSGYYWGWIRQAPGKGLEWIGIIYPSGGGTNYAQKFQGRVTISRDNSKNTLYLQLNSLRAEDTAVYYCARGGGLGFDYWGQGTLVTVSSASTKGPSVFPLAPCSRSTSESTAALGCLVKDYFPEPVTVSWNSGALTSGVHTFPAVLQSSGLYSLSSVVTVPSSSLGTKTYTCNVDHKPSNTKVDKRVESKYGPPCPPCPAPEFLGGPSVFLFPPKPKDTLMISRTPEVTCVVVDVSQEDPEVQFNWYVDGVEVHNAKTKPREEQFNSTYRVVSVLTVLHQDWLNGKEYKCKVSNKGLPSSIEKTISKAKGQPREPQVYTLPPSQEEMTKNQVSLTCLVKGFYPSDIAVEWESNGQPENCYKTTPPVLDCDGSFFLYSRLTVDKSRWQEGNVFSCSVMHEALHNHYTQKSLSLSLGSGGGSEVQLVESGGGLVQPGGSLRLSCAASGFSLSTGGVGVGWIRQAPGKCLEWLALIDWADDKYYSPSLKSRLTISRDNSKNTLYLQLNSLRAEDTAVYYCARGGSDTVIGDWFAYWGQGTLVTVSSGGGGSGGGGSGGGGSGGGGSDIQLTQSPSSLSASVGDRVTITCRASQSIGSYLAWYQQKPGKAPKLLIYDASNLETGVPSRFSGSGSGTDFTLTISSLQPEDFATYYCQQGYYLWTFGCGTKVEIKR
notes: Morrison format: anti-PDL1 Fab, anti-CD137 scFv; IgG4(S228P) with N390C:S400'C; also called PDL1 × CD137 bispecific antibody, format TYF07
B6: TY22176 (bispecific antibody, human IgG1, kappa, N297A)
heavy: B4 heavy
light: EVQLVESGGGLVQPGGSLRLSCAASGYSISSGYYWGWIRQAPGKGLEWIGIIYPSGGGTNYAQKFQGRVTISRDNSKNTLYLQLNSLRAEDTAVYYCARGGGLGFDYWGQGTLVTVSSASTKGPSVFPLAPSSKSTSGGTAALGCLVKDYFPEPVTVSWNSGALTSGVHTFPAVLQSSGLYSLSSVVTVPSSSLGTQTYICNVNHKPSNTKVDKRVEPKSCDKTHTCPPCPAPELLGGPSVFLFPPKPKDTLMISRTPEVTCVVVDVSHEDPEVKFNWYVDGVEVHNAKTKPREEQYASTYRVVSVLTVLHQDWLNGKEYKCKVSNKALPAPIEKTISKAKGQPREPQVYTLPPSREEMTKNQVSLTCLVKGFYPSDIAVEWESNGQPENCYKTTPPVLDCDGSFFLYSKLTVDKSRWQQGNVFSCSVMHEALHNHYTQKSLSLSPGSGGGSEVQLVESGGGLVQPGGSLRLSCAASGFSLSTGGVGVGWIRQAPGKCLEWLALIDWADDKYYSPSLKSRLTISRDNSKNTLYLQLNSLRAEDTAVYYCARGGSDTVIGDWFAYWGQGTLVTVSSGGGGSGGGGSGGGGSGGGGSDIQLTQSPSSLSASVGDRVTITCRASQSIGSYLAWYQQKPGKAPKLLIYDASNLETGVPSRFSGSGSGTDFTLTISSLQPEDFATYYCQQGYYLWTFGCGTKVEIKR
notes: Morrison format: anti-PDL1 Fab, anti-CD137 scFv; IgG1 with N390C:S400'C and N297A; also called PDL1 × CD137 bispecific antibody, format TYF04
B7: TY22166 (bispecific antibody, human IgG4 S228P, kappa)
heavy: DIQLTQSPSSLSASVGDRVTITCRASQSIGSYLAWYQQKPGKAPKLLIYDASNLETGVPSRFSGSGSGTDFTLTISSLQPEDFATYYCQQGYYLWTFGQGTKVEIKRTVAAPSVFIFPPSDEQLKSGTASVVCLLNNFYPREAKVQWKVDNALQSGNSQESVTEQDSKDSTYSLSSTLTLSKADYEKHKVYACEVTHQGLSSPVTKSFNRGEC
light: EVQLVESGGGLVQPGGSLRLSCAASGFSLSTGGVGVGWIRQAPGKGLEWLALIDWADDKYYSPSLKSRLTISRDNSKNTLYLQLNSLRAEDTAVYYCARGGSDTVIGDWFAYWGQGTLVTVSSASTKGPSVFPLAPCSRSTSESTAALGCLVKDYFPEPVTVSWNSGALTSGVHTFPAVLQSSGLYSLSSVVTVPSSSLGTKTYTCNVDHKPSNTKVDKRVESKYGPPCPPCPAPEFLGGPSVFLFPPKPKDTLMISRTPEVTCVVVDVSQEDPEVQFNWYVDGVEVHNAKTKPREEQFNSTYRVVSVLTVLHQDWLNGKEYKCKVSNKGLPSSIEKTISKAKGQPREPQVYTLPPSQEEMTKNQVSLTCLVKGFYPSDIAVEWESNGQPENCYKTTPPVLDCDGSFFLYSRLTVDKSRWQEGNVFSCSVMHEALHNHYTQKSLSLSLGSGGGSEVQLVESGGGLVQPGGSLRLSCAASGYSISSGYYWGWIRQAPGKCLEWIGIIYPSGGGTNYAQKFQGRVTISRDNSKNTLYLQLNSLRAEDTAVYYCARGGGLGFDYWGQGTLVTVSSGGGGSGGGGSGGGGSGGGGSDIQLTQSPSSLSASVGDRVTITCRASQSIPSFLNWYQQKPGKAPKLLIYAASSLQSGVPSRFSGSGSGTDFTLTISSLQPEDFATYYCQHYISWPRQFTFGCGTKVEIKR
notes: Morrison format: anti-CD137 Fab, anti-PDL1 scFv; IgG4(S228P) with N390C:S400'C; also called CD137 × PDL1 bispecific antibody, format TYF07

Each binder was assayed against T2, Human CD137 (SPR analyte) (human, UniProt Q07011 24-186, limits assumed) (assay: SPR (Biacore T200), antibody captured by anti-human IgG on CM5 chip, antigen injected as analyte, 1:1 Langmuir fit).
T2 construct: also called CD137H
Experimental: (§1) Biacore T200 (GE Healthcare) was used as a high performance system for real-time biomolecular interaction analysis, using surface plasmon resonance technology (“SPR”). During the measurement, anti-human IgG monoclonal antibody from the Human Antibody Capture Kit provided by Biacore was immobilized on CM5 chips, and IgG sample was injected onto sensor chip. Analytes were injected onto IgG captured flow cell for binding kinetic analysis in HBS-EP buffer.

Binder | Kd [nM]
B1 | 2.8
B2 | 2.7
B3 | 7
B4 | 14.1
B5 | 5.2
B6 | 7.1
B7 | 3

What follows are binders tested against T3, Human PDL1 (SPR analyte) (human, UniProt Q9NZQ7 19-238, limits assumed) in the same assay as above.
T3 construct: also called PDL1H
Experimental: as §1

T3 sequence (Q9NZQ7 19-238 limits assumed): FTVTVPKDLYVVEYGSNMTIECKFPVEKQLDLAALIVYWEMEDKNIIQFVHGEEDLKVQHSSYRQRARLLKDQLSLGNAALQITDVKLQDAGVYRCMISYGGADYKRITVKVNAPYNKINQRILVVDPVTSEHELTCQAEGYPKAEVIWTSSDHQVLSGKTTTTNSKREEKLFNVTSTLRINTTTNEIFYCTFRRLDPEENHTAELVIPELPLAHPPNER

Binder | Kd [nM]
B1 | 40.3
B2 | 29.8
B3 | 33.4
B4 | 6.9
B5 | 7.7
B6 | 8.1
B7 | 42

What follows are binders tested against T4, mouse PDL1 expressed on cells (mouse, UniProt Q9EP73 19-290) (assay: flow cytometry, antigen transiently expressed on yeast or HEK293F cells, IgG at 100 nM, Alexa Fluor 647 anti-human Fc detection (FIG. 13)).
T4 construct: whole, on cells
Experimental: (§2) The affinity of antibodies was also assessed against human, monkey and mouse CD137 or PDL1 that were transiently expressed on the surface of yeast or HEK293F cells. Briefly, yeast or HEK293F cells were transfected with a plasmid expressing human, monkey or mouse CD137 or PDL1. After 48 hours, the transfected cells were harvested and then washed. Cells were then incubated with IgGs (each at 100 nM) at 4° C. in the shaking bed for 1 hour shaking at 300 rpm, protected from light. For simultaneously binding, cell were incubated with biotinylated human CD137 or PDL1 protein fused with human Fc fragment, and SA-PE (streptavidin, phycoerythrin conjugated). For cross-reactivity, cells were incubated with Alexa Fluor 647 conjugated mouse anti-human Fc antibodies. The mixtures were incubated at 4° C. in the shaking bed for 30 minutes shaking at 300 rpm, protected from light. The cells were washed once prior to analysis by flow cytometry (Beckman CytoFlex).

T4 sequence (Q9EP73 19-290): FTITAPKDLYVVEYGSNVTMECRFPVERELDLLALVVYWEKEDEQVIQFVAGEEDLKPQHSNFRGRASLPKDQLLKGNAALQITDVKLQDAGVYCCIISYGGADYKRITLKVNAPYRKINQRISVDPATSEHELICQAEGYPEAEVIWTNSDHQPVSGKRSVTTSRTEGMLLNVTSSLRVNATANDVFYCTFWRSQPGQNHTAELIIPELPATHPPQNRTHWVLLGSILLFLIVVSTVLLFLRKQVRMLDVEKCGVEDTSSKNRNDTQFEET

Binder | binding result
B4 | binds

What follows are binders tested against T1, mouse CD137 expressed on cells in the same assay as above.
Experimental: as §2

Binder | binding result
B4 | binds
